Literature values as cited in patent US8901167B2, “Product and process for inhibition of biofilm development” (National Jewish Health, priority 2004, dated 2014).

Assays:
P. aeruginosa biofilm = conditions: literature refs 39, 43
[1] = tested on: extracellular DNA present in the CF airway; conditions: inhalation, CF patients; Fuchs et al. 1994

B1: lactoferrin: a major component of the secondary neutrophil granules (protein, UniProt P02788 20-710, looked up)
Lactotransferrin: GRRRSVQWCAVSQPEATKCFQWQRNMRKVRGPPVSCIKRDSPIQCIQAIAENRADAVTLDGGFIYEAGLAPYKLRPVAAEVYGTERQPRTHYYAVAVVKKGGSFQLNELQGLKSCHTGLRRTAGWNVPIGTLRPFLNWTGPPEPIEAAVARFFSASCVPGADKGQFPNLCRLCAGTGENKCAFSSQEPYFSYSGAFKCLRDGAGDVAFIRESTVFEDLSDEAERDEYELLCPDNTRKPVDKFKDCHLARVPSHAVVARSVNGKEDAIWNLLRQAQEKFGKDKSPKFQLFGSPSGQKDLLFKDSAIGFSRVPPRIDSGLYLGSGYFTAIQNLRKSEEEVAARRARVVWCAVGEQELRKCNQWSGLSEGSVTCSSASTTEDCIALVLKGEADAMSLDGGYVYTAGKCGLVPVLAENYKSQQSSDPDPNCVDRPVEGYLAVAVVRRSDTSLTWNSVKGKKSCHTAVDRTAGWNIPMGLLFNQTGSCKFDEYFSQSCAPGSDPRSNLCALCIGDEQGENKCVPNSNERYYGYTGAFRCLAENAGDVAFVKDVTVLQNTDGNNNEAWAKDLKLADFALLCLDGKRKPVTEARSCHLAMAPNHAVVSRMDKVERLKQVLLHQQAKFGRNGSDCPDKFCLFQSETKNLLFNDNTECLARLHGKTTYEKYLGPQYVAGITNLKKCSTSPLLEACEFLRK
Effect on P. aeruginosa biofilm formation (P. aeruginosa biofilm): prevent P. aeruginosa biofilm development

B2: rhDNase: purified rhDNase (Pulmozyme; Genentech), digests extracellular DNA present in the CF airway (protein, UniProt P24855 23-282, looked up)
Deoxyribonuclease-1: LKIAAFNIQTFGETKMSNATLVSYIVQILSRYDIALVQEVRDSHLTAVGKLLDNLNQDAPDTYHYVVSEPLGRNSYKERYLFVYRPDQVSAVDSYYYDDGCEPCGNDTFNREPAIVRFFSRFTEVREFAIVPLHAAPGDAVAEIDALYDVYLDVQEKWGLEDVMLMGDFNAGCSYVRPSQWSSIRLWTSPTFQWLIPDSADTTATPTHCAYDRIVVAGMLLRGAVVPDSALPFNFQAAYGLSDQLAQAISDHYPVEVMLK
Clinical effect on sputum viscosity and forced expiratory volume (FEV) [1]: clinically effective for diminishing sputum viscosity and stabilizing the forced expiratory volume
